B1: HsLARP4 peptide 612–625 (peptide)
peptide: QEPRKLSYAEVCQK
notes: La-related protein 4 (LARP4), human, residues 612-625; source: synthetic peptide (GenScript)
B2: HsLARP4 peptide 587–637 (peptide)
peptide: TTKPSRASTASPCNNNINAATAVALQEPRKLSYAEVCQKPPKEPSSVLVQP
notes: La-related protein 4 (LARP4), human, residues 587-637; source: synthetic peptide (GenScript)
B3: HsLARP4 peptide 575–625 (peptide)
peptide: LNQTTIPVSPPSTTKPSRASTASPCNNNINAATAVALQEPRKLSYAEVCQK
notes: La-related protein 4 (LARP4), human, residues 575-625; source: synthetic peptide (GenScript)
B4: HsLARP4 peptide 615–625 (peptide)
peptide: RKLSYAEVCQK
notes: La-related protein 4 (LARP4), human, residues 615-625 (within CR2); source: synthetic peptide (GenScript)

This experiment deals with recombinant full-length RACK1 protein (ITC) (human, UniProt P63244 1-317). As to the kind of experiment: ITC; LARP4 peptide (400 μM; 300 μM for 600–625) injected into RACK1 (40 μM; 30 μM) in the cell; iTC200; 298K; 20 mM HEPES, 300 mM NaCl, 10% glycerol, 1 mM DTT pH 7.5; triplicate. The settings on record: both partners purified. Background: Isothermal titration calorimetry measures the heat released or taken up as one component is titrated into another.
Turning to B1, the Kd was found to be 2000 nM, the dH was -8.3 kcal/mol and the “stoichiometry N” value came out at 0.8.

For B2, the Ka worked out at 440000 M⁻¹, the Kd is 2300 nM, the dH is -7.8 kcal/mol and the “stoichiometry N” value was found to be 1.

Consider B3, for which the Ka was determined as 370000 M⁻¹, the dissociation constant Kd was 2700 nM, the dH is -5.7 kcal/mol and the “stoichiometry N” value is 1.

Consider B4, for which the dissociation constant (Kd) is 3000 nM, the dH is -8.1 kcal/mol and the “stoichiometry N” value came to 0.9.

One may read the Kd as the constant that tells how readily two partners part at equilibrium. What is called stoichiometry N is the number of molecules, sites or subunits per partner or assembly.

The values are drawn from paper doi:10.1101/2024.11.01.621267 (bioRxiv, 2024).
